In article PMC10279920, “Single-molecule visualization of Pif1 helicase translocation on single-stranded DNA” (The Journal of Biological Chemistry, 2023):

Key:
Assay in all cases: EMSA; no ATP, 5 mM Mg2+; 35 mM Tris-HCl pH 7.5, 1 mM DTT, 5 mM MgCl2, 60 mM KCl, 0.1 mg/ml BSA, no ATP, 30 min at 30 C; 5 nM ssDNA
Settings in all cases: protein: recombinant; tags: N-terminal superfolder GFP; Ni-NTA purified; label: 5' Alexa647
GFP-Pif1 K387A = biological target: T1, GFP-Pif1 K387A (Saccharomyces cerevisiae, UniProt P07271 40-859, K387A)
T1 sequence: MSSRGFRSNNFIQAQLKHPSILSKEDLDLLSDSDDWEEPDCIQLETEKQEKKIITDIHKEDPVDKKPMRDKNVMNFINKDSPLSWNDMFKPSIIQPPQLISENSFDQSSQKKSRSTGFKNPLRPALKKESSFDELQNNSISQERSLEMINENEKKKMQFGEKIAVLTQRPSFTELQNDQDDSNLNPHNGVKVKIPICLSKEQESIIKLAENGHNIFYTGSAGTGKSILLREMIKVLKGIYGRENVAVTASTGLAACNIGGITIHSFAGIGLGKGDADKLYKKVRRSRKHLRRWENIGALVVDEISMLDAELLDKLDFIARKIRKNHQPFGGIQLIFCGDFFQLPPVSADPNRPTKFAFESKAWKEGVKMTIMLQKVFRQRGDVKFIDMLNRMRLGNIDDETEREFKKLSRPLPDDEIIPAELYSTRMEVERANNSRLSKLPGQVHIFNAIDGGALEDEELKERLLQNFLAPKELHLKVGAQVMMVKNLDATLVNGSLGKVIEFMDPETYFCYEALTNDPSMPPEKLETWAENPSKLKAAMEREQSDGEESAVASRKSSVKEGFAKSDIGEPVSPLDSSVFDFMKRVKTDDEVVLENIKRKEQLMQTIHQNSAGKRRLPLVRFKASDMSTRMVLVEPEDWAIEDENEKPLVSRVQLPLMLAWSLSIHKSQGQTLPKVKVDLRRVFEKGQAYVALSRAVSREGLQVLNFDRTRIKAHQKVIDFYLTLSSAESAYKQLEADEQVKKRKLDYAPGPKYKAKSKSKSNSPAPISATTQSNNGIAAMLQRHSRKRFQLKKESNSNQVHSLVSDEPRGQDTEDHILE

Pif1 WT (GFP-Pif1) = biological target: T2, Pif1 WT (GFP-Pif1) (Saccharomyces cerevisiae, UniProt P07271 40-859)
T2 sequence: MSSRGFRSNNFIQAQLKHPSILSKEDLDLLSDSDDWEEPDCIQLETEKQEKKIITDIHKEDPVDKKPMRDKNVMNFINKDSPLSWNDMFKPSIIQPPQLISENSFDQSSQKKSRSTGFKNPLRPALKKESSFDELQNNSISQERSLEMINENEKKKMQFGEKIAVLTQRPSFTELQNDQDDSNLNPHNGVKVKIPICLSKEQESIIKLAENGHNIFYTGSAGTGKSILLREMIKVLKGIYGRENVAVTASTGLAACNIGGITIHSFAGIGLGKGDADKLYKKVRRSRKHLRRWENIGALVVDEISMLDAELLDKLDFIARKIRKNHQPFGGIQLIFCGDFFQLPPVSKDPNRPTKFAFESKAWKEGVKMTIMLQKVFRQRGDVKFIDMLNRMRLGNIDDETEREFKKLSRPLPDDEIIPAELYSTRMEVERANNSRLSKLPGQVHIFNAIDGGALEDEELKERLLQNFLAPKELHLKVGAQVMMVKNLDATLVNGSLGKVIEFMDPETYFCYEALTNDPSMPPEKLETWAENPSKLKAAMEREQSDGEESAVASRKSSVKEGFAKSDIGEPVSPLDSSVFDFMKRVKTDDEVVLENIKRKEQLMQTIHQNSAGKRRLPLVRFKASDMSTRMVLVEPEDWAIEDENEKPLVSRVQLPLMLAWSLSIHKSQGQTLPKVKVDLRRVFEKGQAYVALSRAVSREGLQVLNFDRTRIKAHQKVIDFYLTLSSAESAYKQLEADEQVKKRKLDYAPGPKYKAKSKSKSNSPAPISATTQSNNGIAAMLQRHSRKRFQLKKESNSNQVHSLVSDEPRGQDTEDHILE

GFP-Pif1 F723A = biological target: T3, GFP-Pif1 F723A (Saccharomyces cerevisiae, UniProt P07271 40-859, F723A)
T3 sequence: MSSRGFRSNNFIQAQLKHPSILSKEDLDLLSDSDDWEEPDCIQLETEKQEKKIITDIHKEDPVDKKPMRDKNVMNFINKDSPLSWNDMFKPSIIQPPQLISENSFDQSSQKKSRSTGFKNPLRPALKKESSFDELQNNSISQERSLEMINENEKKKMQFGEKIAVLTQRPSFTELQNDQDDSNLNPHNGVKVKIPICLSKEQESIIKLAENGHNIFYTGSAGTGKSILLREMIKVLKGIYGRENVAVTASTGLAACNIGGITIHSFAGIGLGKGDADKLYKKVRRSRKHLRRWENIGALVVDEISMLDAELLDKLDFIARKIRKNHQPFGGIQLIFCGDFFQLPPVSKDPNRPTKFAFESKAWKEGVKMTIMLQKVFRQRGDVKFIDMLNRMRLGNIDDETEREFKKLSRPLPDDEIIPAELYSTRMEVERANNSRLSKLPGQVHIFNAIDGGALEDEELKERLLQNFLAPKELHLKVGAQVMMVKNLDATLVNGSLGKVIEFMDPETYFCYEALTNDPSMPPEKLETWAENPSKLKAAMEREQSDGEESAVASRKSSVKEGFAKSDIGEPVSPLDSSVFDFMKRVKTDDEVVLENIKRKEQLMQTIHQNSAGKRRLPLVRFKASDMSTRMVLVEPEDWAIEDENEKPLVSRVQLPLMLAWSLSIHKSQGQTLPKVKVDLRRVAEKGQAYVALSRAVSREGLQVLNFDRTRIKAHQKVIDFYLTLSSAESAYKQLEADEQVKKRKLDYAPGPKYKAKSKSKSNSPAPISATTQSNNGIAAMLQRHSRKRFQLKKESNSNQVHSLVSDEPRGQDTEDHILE

B1: 40-nt ssDNA (ssDNA)
DNA: GCTAGCAGTAGCCAGCATCGAACGTACGATCGGTAACGTA
Kd (GFP-Pif1 K387A): 29 nM | Kd (Pif1 WT (GFP-Pif1)): 12.6 ± 3.81 nM | Kd (GFP-Pif1 F723A): 55.6 ± 18.5 nM
